± gives the standard deviation of the averaged measurements.

The text below walks through data of the supplement of paper PMC10724198.
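Note: PSI is a weighted mean of sequencing reads over stability bins, variants kept only with over 10 reads, mCherry proximal and sfGFP distal, peptide attached via GGGS linker.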

For the data set, the system named is Saccharomyces cerevisiae. Nature of the data set: protein stability index of tFT-peptide fusion (C-terminal peptide) (PSI (0-1 scale)); higher = more stable (slower turnover). The conditions noted are these: genetic background: wild type; temperature: 30 C. Here is the method: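 Multiplexed protein stability (MPS) profiling in S. cerevisiae. Random 12-aa peptides (tFT-X12 library) are fused to the C-terminus of a sfGFP-mCherry tandem fluorescent timer, after mCherry and a GGGS linker. Cells are FACS-sorted into 8 mCherry/sfGFP bins and deep-sequenced. The protein stability index (PSI) is the read-weighted bin average, scaled from 0 (unstable) to 1 (stable). Only peptides with >10 reads are reported; cells were grown at 30 °C in SC-His with glucose.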
GGRVAGSMGVGG displayed a protein stability index of 0.68 ± 0.02.
Take GGRWGGVSLGGR: the protein stability index was found to be 0.693 ± 0.11.
As to GGSESRGSDRWE, the protein stability index came to 0.633 ± 0.038.
Turning to GGSGQGAGAVWG, the protein stability index was 0.63 ± 0.076.
The result for GGSNEKARGTGR reads 0.6544 ± 0.00083.
The result for GGSVGGGTGWRM reads 0.65 ± 0.022.
As for GGVGGASMSGTP, the protein stability index was determined as 0.674 ± 0.037.
Turning to GGVGVGVGCGGR, the protein stability index is 0.6828 ± 0.0017.
Turning to GGVRGERSDLRT, the protein stability index was determined as 0.712 ± 0.028.
As to GGVVLTWVGENC, the protein stability index was 0.704 ± 0.061.
In the case of GGWEGLRGLGVG it was 0.634 ± 0.031.
GGWGGAGQWADG yielded a protein stability index of 0.706 ± 0.011.
For GGWGGKLVGRMG, the protein stability index was 0.708 ± 0.0083.
As to GGWGVGVWGVGG, the protein stability index is 0.753 ± 0.08.
For the sequence GGWKINYVEENR, the protein stability index was found to be 0.663 ± 0.011.
GGWTFGSPPYEI showed a protein stability index of 0.693 ± 0.015.
GGYSNRNVEVIV came in with a protein stability index of 0.6323 ± 0.003.
GHKVTKDAIRIR came in with a protein stability index of 0.6545 ± 0.0047.
The result for GHRMMWLFGVPA reads 0.59 ± 0.035; that for GHSNVTSQIRRG, 0.643 ± 0.017.
With GHVRVVVRRRVI, the protein stability index amounted to 0.5812 ± 0.0021.
In the case of GHWTRRPSVKGK it was 0.643 ± 0.0092; in that of GICIVGGCGCVG, 0.612 ± 0.068; in that of GINFEIKFKRYN, 0.764 ± 0.055.
In the case of GIRRSLALSAIS it was 0.555 ± 0.017; in that of GISKHGAITSRI, 0.725 ± 0.0033; in that of GIVDCTKVIGLP, 0.722 ± 0.028.
Regarding GKARLATGESAL, the protein stability index was determined as 0.674 ± 0.031.
GKCKRYENISKR returned a protein stability index of 0.629 ± 0.0095.
GKCLEGCCLVWG displayed a protein stability index of 0.686 ± 0.008.
GKEGGKAGKISE returned a protein stability index of 0.667 ± 0.028.
In turn, GKEKRKEGERRK showed a protein stability index of 0.697 ± 0.12.
In the case of GKPTPRRPEKDG, the protein stability index came to 0.6096 ± 0.0051.
The result for GKRKGETGNRGG reads 0.741 ± 0.19; that for GKRKKRRKRRRT, 0.664 ± 0.043; that for GKRRKKDGNKKR, 0.621 ± 0.066.
Turning to GKSTFWTELAII, the protein stability index is 0.648 ± 0.045.
On to GKYIPHGNPSMA, for which the protein stability index is 0.685 ± 0.051.
The result for GLAIRRDWLGWV reads 0.745 ± 0.056.
Consider GLCGGFGGLRGL, for which the protein stability index worked out at 0.743 ± 0.031.
The sequence GLCLFPAFSFPF gave a protein stability index of 0.671 ± 0.089.
For the sequence GLCVFVNKPSIL, the protein stability index was determined as 0.711 ± 0.011.
The result for GLCVGVGLVWKL reads 0.65 ± 0.07; that for GLDEGCRVGEEV, 0.643 ± 0.013.
The result for GLFDLLCHCCWL reads 0.702 ± 0.05; that for GLFNIDLFRFVR, 0.732 ± 0.041; that for GLFPGSRLRLVE, 0.666 ± 0.011.
The result for GLFVDIRLHRRT reads 0.71 ± 0.017; that for GLGGGRCFWGVG, 0.686 ± 0.061.
Turning to GLGGGVGGGLVV, the protein stability index was 0.7045 ± 0.0046.
With GLGGSKKGEQRL, the protein stability index was determined as 0.674 ± 0.012.
As to GLGLVSWEAGGV, the protein stability index was 0.68 ± 0.025.
In the case of GLGTRLSAVVLS it was 0.625 ± 0.039; in that of GLGWPPGEARRV, 0.621 ± 0.047.
The sequence GLIATWMYKFVF had a protein stability index of 0.617 ± 0.038.
In the case of GLLAIVLYEYTG, the protein stability index worked out at 0.537 ± 0.0083.
In the case of GLLARESLSFRH it was 0.675 ± 0.026; in that of GLLGVGDFRTEF, 0.638 ± 0.048.
In turn, GLMTISFPSFFR gave a protein stability index of 0.704 ± 0.068.
GLMYDGVGCGGD gave a protein stability index of 0.671 ± 0.012.
Regarding GLNGGRLEGERR, the protein stability index turned out to be 0.731 ± 0.11.
GLNLDLSGRLAF yielded a protein stability index of 0.703 ± 0.032.
GLQFYPFLSVVR returned a protein stability index of 0.617 ± 0.013.
Consider GLQIERAVGIRH, for which the protein stability index stood at 0.708 ± 0.028.
As for GLRLGRVWVGGW, the protein stability index was 0.6647 ± 0.0026.
GLRRSTRSRLVF registered a protein stability index of 0.593 ± 0.12.
On to GLRRTGRISGSV, for which the protein stability index was determined as 0.7 ± 0.0076.
Consider GLRSKLEKVQRG, for which the protein stability index was found to be 0.726 ± 0.047.
Regarding GLSCESLRLFFR, the protein stability index was found to be 0.702 ± 0.015.
Sequence GLSFSAALFSAF registered a protein stability index of 0.673 ± 0.05.
GLSHPPNFLPSG registered a protein stability index of 0.6505 ± 0.00088.
In the case of GLSIVGAALHSA, the protein stability index was 0.663 ± 0.025.
GLSSGLWAFWWP yielded a protein stability index of 0.749 ± 0.049.
Sequence GLTCKSTASCKV gave a protein stability index of 0.693 ± 0.01.
The sequence GLVCRKGSMGVR registered a protein stability index of 0.671 ± 0.057.
In turn, GLVFSFSACPVL registered a protein stability index of 0.653 ± 0.066.
The result for GLVGCLFFCCIG reads 0.558 ± 0.013.
